Consider one molecule from patent US20120156198A1 (Hoffmann-La Roche, published 2012).

This experiment has as its target T1, cynomolgus IL-18Rα on CHO-K1 cells (cynomolgus, UniProt A0A2K5V3J9 19-540).
T1 construct: whole, on cells; also called CHO CyIL-18Rα
T1 sequence: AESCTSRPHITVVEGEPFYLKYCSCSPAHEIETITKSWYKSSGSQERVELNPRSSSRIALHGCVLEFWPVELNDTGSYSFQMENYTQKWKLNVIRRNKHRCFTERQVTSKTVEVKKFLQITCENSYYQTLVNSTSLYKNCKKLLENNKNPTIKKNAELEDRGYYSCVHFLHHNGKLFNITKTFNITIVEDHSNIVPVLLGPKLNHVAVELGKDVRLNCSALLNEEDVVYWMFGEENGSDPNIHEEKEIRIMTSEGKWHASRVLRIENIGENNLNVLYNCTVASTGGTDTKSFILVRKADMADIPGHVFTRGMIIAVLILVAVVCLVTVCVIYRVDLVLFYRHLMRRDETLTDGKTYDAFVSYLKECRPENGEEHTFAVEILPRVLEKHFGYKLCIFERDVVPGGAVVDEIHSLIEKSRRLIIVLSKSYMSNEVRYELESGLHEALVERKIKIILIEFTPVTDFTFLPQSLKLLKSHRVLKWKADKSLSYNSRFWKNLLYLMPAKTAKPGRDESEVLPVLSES
Nature of the experiment: cell ELISA on CHO-K1 cells expressing cynomolgus IL-18Rα. The procedure:
The recombinant cell lines CHO-K1 expressing cynomolgus IL-18Rα or cynomolgus IL-18Rα+β were stained with the Mab_IL-18R antibodies in a cell ELISA. Controls are CHO-K1 untransfected cells. Cells were grown in F-12 medium (GIBCO) with Glutamax-1 (GIBCO Cat. No. 31331-028)+10% FCS (PAN Cat. No. 2802-P920707). For cultivation of the recominant cell lines 250 μg/ml G418 (Geneticin, GIBCO, Cat. No. 10131-019) was added. As control antibody anti hIL-18Ralpha Antibody Mab840 (Mouse monoclonal IgG1 from R&D Systems, Cat. MAB 840) and as detection antibody goat anti-mouse IgG (H+L)-HRP conjugate (BioRad) was added. For running the assay, on day 1 2×10⁴ CHO_CynoIL-18Rα, CHO_CynoIL-18Rα+β or untransfected CHO cells in 50 μl F-12/well were seeded in a 96-well plate and incubated overnight at 37° C. On day 2, 50 μl supernatant or (2×) purified antibody diluted in medium or 50 μl Hybridoma supernatant were added and incubated for 2 h at 4° C. Supernatant was aspirated and 100 μl/well Glutaraldehyde fixing solution (25% stock solution Grade EM; final concentration=0.05% in PBS) was added and incubated for 10 minutes at room temperature. For washing 2 times 200 μl PBS/well/wash was added and removed. 50 μl of ELISA detection-antibody diluted in ELISA blocking reagent (ELISA blocking stock reagent diluted 1:10 in PBS) was added. […] The plates were measured at 450 nm-620 nm using an ELISA reader (TECAN).
In general terms: ELISA stands for enzyme-linked immunosorbent assay.

A word on the EC50: it is the concentration that produces a half-maximal response. Read a high EC50 as lower potency in that assay.

B1: Mab 1G12 (antibody, V domains shown)
VH: QVQLQQPGAELVKPGASVRMSCKTSDYTFTSNWMHWVKQRPGQGLEWIGTIDPSDSYTYYNQKFKGRATLTVDTSSSTAYMQLSSLTSEDSAVYYCTTSGDYDADRYFDVWGAGTTVTVSS
VL: DIVLTQSPASLGVSLGQRATISCRASKSVSTSGDSYMHWYQQKPGQSPKLLIYLASNLESGVPARFSGSGSGTDFTLNIHPVEEEDAATYYCQQSRELPLSFGAGTKLELK
notes: Monoclonal antibody from immunized NMRI mice; detected with anti-mouse IgG1-PE / anti-mouse IgG; also called F20.1G12; monoclonal antibody 1G12
In the case of B1, the EC50 is 0.0186 µg/mL.
